From patent publication US20200116741A1 (University of California, published 2020)

Assays:
rhERFE2 = biological target: T1, rhERFE2 (human, UniProt Q4G0M1 29-354); test: hybridoma supernatant screening; checkerboard sandwich testing
T1 construct: also called Recombinant hERFE2; recombinant human erythroferrone 2
T1 sequence: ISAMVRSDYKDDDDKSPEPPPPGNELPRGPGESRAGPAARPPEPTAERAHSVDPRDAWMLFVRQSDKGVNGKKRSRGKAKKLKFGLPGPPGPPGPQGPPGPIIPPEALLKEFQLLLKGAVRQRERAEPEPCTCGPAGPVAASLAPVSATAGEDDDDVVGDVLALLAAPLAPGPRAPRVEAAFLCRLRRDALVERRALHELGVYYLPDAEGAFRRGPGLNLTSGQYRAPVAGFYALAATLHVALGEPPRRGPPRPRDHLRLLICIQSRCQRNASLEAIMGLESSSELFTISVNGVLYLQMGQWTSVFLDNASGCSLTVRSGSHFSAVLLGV
Excerpt: Rabbit hybridomas were generated (custom order fulfilled by Abcam, Burlingame, Calif.) from rabbits immunized by rhERFE1 and boosted by rhERFE2. Hybridoma supernatants were selected for reactivity against rhERFE2. After biotinylation of Mabs (EZ-Link sulfo-NHS-LC-LC-Biotin kit, Thermo Fisher Scientific), optimal pair of unbiotinylated capture Mab and biotinylated detection Mab was chosen by checkerboard testing with rhERFE1 and rhERFE2. The cDNAs encoding the final Mab pair (#9 and #42) were cloned from the hybridomas and used to produce the Mabs recombinantly.

human erythroferrone [1] = biological target: T2, human erythroferrone (human, UniProt Q4G0M1 29-354); test: sandwich ELISA on human serum, biotinylated Mab#42 as detection antibody
T2 construct: Native hormone in human serum, detected by the Mab#9 / Mab#42 sandwich ELISA; also called hERFE; serum hERFE
T2 sequence (looked up): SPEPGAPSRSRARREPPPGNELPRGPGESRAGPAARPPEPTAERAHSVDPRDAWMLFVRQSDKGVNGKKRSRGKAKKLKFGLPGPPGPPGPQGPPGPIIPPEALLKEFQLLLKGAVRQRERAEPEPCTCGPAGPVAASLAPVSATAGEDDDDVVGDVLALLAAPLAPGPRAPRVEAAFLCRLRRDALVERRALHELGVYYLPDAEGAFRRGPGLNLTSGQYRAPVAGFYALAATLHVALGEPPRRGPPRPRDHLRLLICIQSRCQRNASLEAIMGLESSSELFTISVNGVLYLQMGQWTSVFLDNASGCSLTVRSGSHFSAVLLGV
Method: (§1) 96-well high binding plates (Costar #3590) were coated with Mab#9 diluted to 1 μg/ml in sodium carbonate buffer (50 mM, pH 9.6), overnight at 4° C. Plates were washed 3-times with TB S-T (TBS +0.05% Tween 20) then blocked for 1 hour at room temperature with 200 µl/well Blocking Buffer (BB: PBS,0.2% Na casein, 0.05% Tween 20, 0.1M NaCl). Recombinant hERFE2 standard was first diluted to 1 μg/ml and then serially diluted in BB to 10, 5, 2.5, 1.25, and 0.625 ng/ml. After a 1 hour incubation at 25° C. in a 300 rpm shaker, the plate was washed 4-times with TBS-T, 10 seconds, 25° C., and 300 rpm per wash and incubated 1 hour at 25° C., 300 rpm in shaker with 100 μl/well biotinylated Mab#42 (1 μg/ml in BB). After incubation for 1 hour at 25° C., 300 rpm in shaker, the plate was washed 4-times as before, incubated for 45 minutes with Neutravidin-HRP conjugate (ThermoScientific #31030) 1/5000 (100 μl/well) washed again 3-times as before and developed with 100 μl TMB Substrate System for ELISA (ThermoScientific #34028) at room temperature in the dark for 10 minutes. The reaction was stopped by adding 50 μl of 2N sulfuric acid and the plates were read on a Spectramax 250 (Molecular Devices) at 450 nm.

rhERFE1 [2] = biological target: T3, rhERFE1 (human, UniProt Q4G0M1 29-354); test: checkerboard sandwich ELISA, biotinylated detection antibody
T3 construct: The FLAG tag was mostly lost during cell culture; also called recombinant hERFE; recombinant human erythroferrone 1
T3 sequence: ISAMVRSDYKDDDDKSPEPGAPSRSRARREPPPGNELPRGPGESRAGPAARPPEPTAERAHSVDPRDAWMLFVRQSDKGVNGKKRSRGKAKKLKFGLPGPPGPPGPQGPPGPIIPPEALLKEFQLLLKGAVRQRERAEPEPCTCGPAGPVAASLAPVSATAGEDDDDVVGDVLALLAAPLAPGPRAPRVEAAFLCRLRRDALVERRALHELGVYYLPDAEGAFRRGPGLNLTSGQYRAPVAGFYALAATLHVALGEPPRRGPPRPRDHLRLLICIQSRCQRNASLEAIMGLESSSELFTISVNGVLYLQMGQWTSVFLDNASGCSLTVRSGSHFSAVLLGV

human erythroferrone [3] = biological target: T2, human erythroferrone; test: sandwich ELISA on human serum, Mab#9 as capture antibody
Method: as §1

rhERFE1 [4] = biological target: T3, rhERFE1; test: checkerboard sandwich ELISA, capture antibody
[5] = biological target: T4, peptide ELPRGPGESRAGPAARPP (human); test: peptide epitope scanning
T4 peptide: ELPRGPGESRAGPAARPP

Measured: binding result

B1: Mab#42 (antibody, V domains shown)
VH: QSLEESGGRLVTPGGSLTLTCTVSGIDLSSYEMGWVRQAPGKGLEWIGVIGTDGTAVYATWVKGRFTISKTSTTVDLKMTSLTTEDTATYFCARDSSGNSNYRAFDPWGPGTLVTVSS
VL: AYDMTQTPASVEVAVGGTVTIKCQASQSIYSYLSWYQQKPGQPPKLLIYRASTLASGVPSRFKGSGSGTQFTLTISDLECADAATYYCQQGFVISNVLNSFGGGTEVVVKG
notes: Rabbit monoclonal from a hybridoma, later made recombinantly; also called rabbit monoclonal antibody #42; biotinylated detection Mab
binds: rhERFE2 | human erythroferrone [1] | rhERFE1 [2]

B2: Mab#9 (antibody, V domains shown)
VH: QSVEESGGRLVTPGTPLTLTCTVSGIDLNDNAMRWVRQAPGKGLEWIGVIYIDTSTYYASWAKGRFTISKTSSTTVDLKITSPTTEDTATYFCVREDGYRLGDVWGPGTLVTVSS
VL: ALVMTQTPSSVSAGVGGTVTINCQASQSLYNNNYLSWFQQKPGQPPKLLIYWASTLASGVPSRFSGSGSGTQFTLTISGVACDDAATYYCAGYKSSSNDDFAFGGGTEVVVKG
notes: Rabbit monoclonal from a hybridoma, later made recombinantly; Used unbiotinylated as the capture antibody in the ELISA; also called rabbit monoclonal antibody #9; capture Mab
binds: human erythroferrone [3] | rhERFE1 [4] | rhERFE2 | [5]
